Substrate in series [1]: OC[C@H]1OC(O)[C@H](O)[C@@H](O)[C@@H]1O
Put plainly: Steady-state kinetics, DCIP assay: C. thermophilus CDH C310Y. Type of series: biochemical, Corynascus thermophilus. Conditions: other: apparent, pH 5.5, 30° C.

Substrate in series [2]: OC[C@H]1O[C@H](O[C@H]2[C@H](O)[C@@H](O)C(O)O[C@@H]2CO)[C@H](O)[C@@H](O)[C@@H]1O
Described as above. Type of series: biochemical, Corynascus thermophilus. Conditions: other: apparent, pH 5.5, 30° C.

Substrate in series [3]: OC[C@H]1O[C@H](O[C@H]2[C@H](O)[C@@H](O)C(O)O[C@@H]2CO)[C@H](O)[C@@H](O)[C@@H]1O
Put plainly: Steady-state kinetics, DCIP assay: M. thermophilum CDH N313S. Type of series: biochemical, Myriococcum thermophilum. Conditions: other: apparent, pH 4.5, 30° C.

Substrate in series [4]: OC[C@H]1O[C@H](O[C@H]2[C@H](O)[C@@H](O)C(O)O[C@@H]2CO)[C@H](O)[C@@H](O)[C@@H]1O
Put plainly: Steady-state kinetics, DCIP assay: M. thermophilum CDH N721D. Type of series: biochemical, Myriococcum thermophilum. Conditions: other: apparent, pH 4.5, 30° C.

Substrate in series [5]: OC[C@H]1OC(O)[C@H](O)[C@@H](O)[C@@H]1O
Put plainly: Steady-state kinetics, DCIP assay: M. thermophilum CDH W316L. Type of series: biochemical, Myriococcum thermophilum. As to conditions: other: apparent, pH 4.5, 30° C., ~ values only estimated by non linear regression.

Substrate in series [6]: OC[C@H]1OC(O)[C@H](O)[C@@H](O)[C@@H]1O
Put plainly: Steady-state kinetics, DCIP assay: M. thermophilum CDH R622N. Type of series: biochemical, Myriococcum thermophilum. As to conditions: other: apparent, pH 4.5, 30° C., ~ values only estimated by non linear regression.

Substrate in series [7]: OC[C@H]1O[C@H](O[C@H]2[C@H](O)[C@@H](O)C(O)O[C@@H]2CO)[C@H](O)[C@@H](O)[C@@H]1O
The series can be described thus: Steady-state kinetics, DCIP assay: M. thermophilum CDH wt. Type of series: biochemical, Myriococcum thermophilum. As to conditions: other: apparent, pH 4.5, 30° C.

Substrate in series [8]: OC[C@H]1OC(O)[C@H](O)[C@@H](O)[C@@H]1O
The series can be described thus: Steady-state kinetics, DCIP assay: M. thermophilum CDH W316R. Conditions: other: apparent, pH 4.5, 30° C., ~ values only estimated by non linear regression. Type of series: biochemical, Myriococcum thermophilum.

Substrate in series [9]: OC[C@H]1OC(O)[C@H](O)[C@@H](O)[C@@H]1O
The series can be described thus: Steady-state kinetics, DCIP assay: C. thermophilus flavodehydrogenase domain C310Y. Type of series: biochemical, Corynascus thermophilus. As to conditions: other: apparent, pH 5.5, 30° C.

Substrate in series [10]: OC[C@H]1O[C@H](O[C@H]2[C@H](O)[C@@H](O)C(O)O[C@@H]2CO)[C@H](O)[C@@H](O)[C@@H]1O
Described as above. Type of series: biochemical, Corynascus thermophilus. As to conditions: other: apparent, pH 5.5, 30° C.

Substrate in series [11]: OC[C@H]1O[C@H](O[C@H]2[C@H](O)[C@@H](O)C(O)O[C@@H]2CO)[C@H](O)[C@@H](O)[C@@H]1O
The series can be described thus: purified protein, by the assay type. Conditions: other: apparent, wt flavodehydrogenase domain, DCIP assay, pH 5.5, 30° C.

Data on nine proteins can be found in patent US10184115B2, “Mutated cellobiose dehydrogenase with increased substrate specificity” (DIRECTSENS GMBH, priority 2012, dated 2019).

Residue numbers refer to the chain shown, from its start. Names and notes keep the numbering of the source.

B1: Corynascus thermophilus cellobiose dehydrogenase (CDH, SEQ ID NO: 7) variant C310Y (Thermothelomyces fergusii; C310Y) (protein)
chain: QMTEGTYTHEATGITFKTWTPSDGSTFTFGLALPGDALTNDATEYIGLLRCQITDPSSPGYCGISHGQSGQMTQALLLVAWASEDVVYTSFRYATGYTLPELYTGDAKLTQIASSVSGDSFEVLFRCENCFSWDQNGATGSVSTSNGALVLGYAASKSGLTGATCPDTAEFGFHNNGFGQWGAVLEGATSDSYEEWAQLATITPPTTCDGNGPGDKVCVPAPEDTYDYIVVGAGAGGITVADKLSEAGHKVLLIEKGPPSTGLWNGTMKPEWLEGTDLTRFDVPGLYNQIWVDSAGIACTDTDQMAGCVLGGGTAVNAGLWWKPHPADWDDNFPHGWKSSDLADATERVFSRIPGTWHPSQDGKLYRQEGFEVISQGLANAGWREVDANQEPSEKNRTYSHSVFMFSGGERGGPLATYLASAAQRSNFNLWVNTSVRRAIRTGPRVSGVELECLADGGFNGTVNLKEGGGVIFSAGAFGSAKLLLRSGIGPEDQLEIVASSKDGETFISKNDWIKLPVGHNLIDHLNTDLIITHPDVVFYDFYAAWDNPITEDKEAYLNSRSGILAQAAPNIGPLMWEEVTPSDGITRQFQWTCRVEGDSSKTNSTHAMTLSQYLGRGVVSRGRMGITSGLTTTVAEHPYLHNDGDLEAVIQGIQNVVDALSQVPDLEWVLPPPNTTVEEYVNSLIVSPANRRANHWMGTAKMGLDDGRSGGSAVVDLNTKVYGTDNLFVVDASIFPGMSTGNPSAMIVIVAEQAAQRILSLRY
Turning to B1, in series [1], the Km is given as 37.5 mM, the kcat was 19.67 s⁻¹ and the kcat/Km came out at 524.5 M⁻¹ s⁻¹. In [2], the Michaelis-Menten constant (Km) came to 80.0 mM, the kcat turned out to be 0.95 s⁻¹ and the kcat/Km turned out to be 12 M⁻¹ s⁻¹.

B2: Myriococcum thermophilum cellobiose dehydrogenase (CDH, SEQ ID NO: 1) variant N313S (Thermothelomyces myriococcoides; N313S) (protein)
chain: QNNVPNTFTDPDSGITFNTWGLDEDSPQTQGGFTFGVALPSDALTTDASEFIGYLKCARNDESGWCGISLGGPMTNSLLITAWPHEDTVYTSLRFATGYAMPDVYEGDAEITQVSSSVNSTHFSLIFRCKNCLQWSHGGSSGGASTSGGVLVLGWVQAFDDPGNPTCPEQITLQQHDNGMGIWGAQLNTDAASPSYTDWAAQATKTVTGDCEGPTETSVVGVPVPTGVSFDYIVVGGGAGGIPAADKLSEAGKSVLLIEKGFASTANTGGTLGPEWLEGHDLTRFDVPGLCSQIWVDSKGIACEDTDQMAGCVLGGGTAVNAGLWFKPYSLDWDYLFPDGWKYNDVQPAINRALSRIPGTDAPSTDGKRYYQEGFEVLSKGLAAGGWTSVTANNAPDKKNRTFAHAPFMFAGGERNGPLGTYFQTAKKRNNFDVWLNTSVKRVIREGGHITGVEVEPFRDGGYEGIVPVTKVTGRVILSAGTFGSAKILLRSGIGPEDQLEVVAASEKDGPTMIGNSSWINLPVGYNLDDHLNTDTVISHPDVVFYDFYEAWDDPIESDKNSYLESRTGILAQAAPNIGPMFWEEIVGADGIVRQLQWTARVEGSLGAPNGHTMTMSQYLGRGATSRGRMTITPSLTTIVSDVPYLKDPNDKEAVIQGIINLQNALQNVANLTWLFPNSTITPREYVESMVVSPSNRRSNHWMGTNKLGTDDGRKGGSAVVDLDTRVYGTDNLFVIDASIFPGVPTTNPTSYIVVAAEHASSRILALPDLEPVPKYGQCGGREWTGSFVCADGSTCEYQNEWYSQCL
As to B2, in [3], the Km worked out at 52 mM, the kcat amounted to 1.3 s⁻¹ and the kcat/Km came to 25 M⁻¹ s⁻¹.

B3: Myriococcum thermophilum cellobiose dehydrogenase (CDH, SEQ ID NO: 1) variant N721D (Thermothelomyces myriococcoides; N721D) (protein)
chain: B2 chain with S292N, N700D
Take B3: in series [4], the Michaelis-Menten constant (Km) is reported as 6.1 mM, the kcat is 0.08 s⁻¹ and the kcat/Km was found to be 13.2 M⁻¹ s⁻¹.

B4: Myriococcum thermophilum cellobiose dehydrogenase (CDH, SEQ ID NO: 1) variant W316L (Thermothelomyces myriococcoides; W316L) (protein)
chain: B2 chain with S292N, W295L
Turning to B4, in series [5], the kcat is 9.9 s⁻¹ and the kcat/Km was 2.8 M⁻¹ s⁻¹.

B5: Myriococcum thermophilum cellobiose dehydrogenase (CDH, SEQ ID NO: 1) variant R622N (Thermothelomyces myriococcoides; R622N) (protein)
chain: B2 chain with S292N, R601N
For B5, in series [6], the kcat is 13.1 s⁻¹ and the kcat/Km is 6.0 M⁻¹ s⁻¹.

B6: Myriococcum thermophilum cellobiose dehydrogenase (CDH), recombinant wild type, SEQ ID NO: 1 (Thermothelomyces myriococcoides) (protein)
chain: B2 chain with S292N
With B6, in [7], the Km was 6.8 mM, the kcat stood at 0.32 s⁻¹ and the kcat/Km amounted to 47 M⁻¹ s⁻¹.

B7: Myriococcum thermophilum cellobiose dehydrogenase (CDH, SEQ ID NO: 1) variant W316R (Thermothelomyces myriococcoides; W316R) (protein)
chain: B2 chain with S292N, W295R
Take B7: in series [8], the kcat was 1.2 s⁻¹ and the kcat/Km was 0.34 M⁻¹ s⁻¹.

B8: Corynascus thermophilus CDH flavodehydrogenase domain (amino acids 249-787 of SEQ ID NO: 7) variant C310Y (C310YDH) (Thermothelomyces fergusii; C310Y) (protein)
chain: YDYIVVGAGAGGITVADKLSEAGHKVLLIEKGPPSTGLWNGTMKPEWLEGTDLTRFDVPGLYNQIWVDSAGIACTDTDQMAGCVLGGGTAVNAGLWWKPHPADWDDNFPHGWKSSDLADATERVFSRIPGTWHPSQDGKLYRQEGFEVISQGLANAGWREVDANQEPSEKNRTYSHSVFMFSGGERGGPLATYLASAAQRSNFNLWVNTSVRRAIRTGPRVSGVELECLADGGFNGTVNLKEGGGVIFSAGAFGSAKLLLRSGIGPEDQLEIVASSKDGETFISKNDWIKLPVGHNLIDHLNTDLIITHPDVVFYDFYAAWDNPITEDKEAYLNSRSGILAQAAPNIGPLMWEEVTPSDGITRQFQWTCRVEGDSSKTNSTHAMTLSQYLGRGVVSRGRMGITSGLTTTVAEHPYLHNDGDLEAVIQGIQNVVDALSQVPDLEWVLPPPNTTVEEYVNSLIVSPANRRANHWMGTAKMGLDDGRSGGSAVVDLNTKVYGTDNLFVVDASIFPGMSTGNPSAMIVIVAEQAAQRILSLRY
As to B8, in [9], the Km was determined as 37.1 mM, the kcat came to 17.6 s⁻¹ and the kcat/Km turned out to be 474.4 M⁻¹ s⁻¹. Also, in series [10], the Km worked out at 51.86 mM, the kcat was determined as 0.69 s⁻¹ and the kcat/Km worked out at 13.3 M⁻¹ s⁻¹.

B9: Corynascus thermophilus CDH flavodehydrogenase domain, recombinant wild type (wtDH), amino acids 249-787 of SEQ ID NO: 7 (Thermothelomyces fergusii) (protein)
chain: B8 chain with Y62C
In the case of B9, in series [11], the Michaelis constant (Km) came out at 2.89 mM.

What is called Km is the concentration of substrate that gives half-maximal velocity. As usually defined, the kcat is the number of substrate molecules converted per active site and unit of time at saturation. One may read the kcat/Km as the turnover number divided by the Michaelis constant.
